Data from patent US20010004522A1, “KINASE ACTIVITY MEASUREMENT USING FLUORESCENCE POLARIZATION” (priority 1997, published 2001).
Blank lines part the entries; values can stand above or below the molecule they belong to.

Assays:
EGF receptor = EGF receptor (Homo sapiens, UniProt P00533); details: 50 mM EDTA, ~12.5 nM EGF receptor, 30° C., polarization read every 10 seconds
[1] = target: T1, T-cell protein tyrosine phosphatase (Homo sapiens, UniProt P17706); assay: Phosphatase activity by fluorescence polarization; type: biochemical; details: 1.0 mM Na3VO4, 0.5 U T-cell protein tyrosine phosphatase, 30° C.
T1 construct: purchased New England Biolabs
T1 sequence (P17706 1-317 limits assumed): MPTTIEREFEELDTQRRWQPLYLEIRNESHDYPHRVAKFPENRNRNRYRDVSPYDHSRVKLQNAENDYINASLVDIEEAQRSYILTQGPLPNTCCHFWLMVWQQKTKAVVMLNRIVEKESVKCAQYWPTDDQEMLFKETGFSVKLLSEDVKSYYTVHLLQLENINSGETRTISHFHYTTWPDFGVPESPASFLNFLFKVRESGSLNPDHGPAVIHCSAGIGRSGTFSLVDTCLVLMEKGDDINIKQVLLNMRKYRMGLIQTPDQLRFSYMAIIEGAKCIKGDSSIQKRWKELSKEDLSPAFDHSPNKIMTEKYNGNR
Procedure: Fluorescence polarization can also be used to measure phosphatase activity.
Phosphatase enzyme was added to a high polarization mixture and as it removed the phosphate from the peptide, the antibody was released, and the polarization value went down, shown in FIG. 13. Two control experiments were performed. […] This assay was performed with all of the reaction and detection components present in a test tube. However, this reaction could also be done as an endpoint assay with aliquots of the reaction taken at incremental time points, or with different reactions started at the same time but terminated at incremental time points.

GFAP peptide = assay: Radioactive (32P) kinase assay of PKC isozymes on GFAP peptide; type: biochemical; details: GFAP peptide 100 μg/ml, 10 μM ATP, 100 μM CaCl2, no EGTA
[2] = target: T2, PKC Epsilon (ε) substrate peptide (Homo sapiens, UniProt Q02156); assay: PKC activity assay, phospholipid dependence; type: biochemical
T2 construct: made in house
T2 sequence (Q02156 1-737): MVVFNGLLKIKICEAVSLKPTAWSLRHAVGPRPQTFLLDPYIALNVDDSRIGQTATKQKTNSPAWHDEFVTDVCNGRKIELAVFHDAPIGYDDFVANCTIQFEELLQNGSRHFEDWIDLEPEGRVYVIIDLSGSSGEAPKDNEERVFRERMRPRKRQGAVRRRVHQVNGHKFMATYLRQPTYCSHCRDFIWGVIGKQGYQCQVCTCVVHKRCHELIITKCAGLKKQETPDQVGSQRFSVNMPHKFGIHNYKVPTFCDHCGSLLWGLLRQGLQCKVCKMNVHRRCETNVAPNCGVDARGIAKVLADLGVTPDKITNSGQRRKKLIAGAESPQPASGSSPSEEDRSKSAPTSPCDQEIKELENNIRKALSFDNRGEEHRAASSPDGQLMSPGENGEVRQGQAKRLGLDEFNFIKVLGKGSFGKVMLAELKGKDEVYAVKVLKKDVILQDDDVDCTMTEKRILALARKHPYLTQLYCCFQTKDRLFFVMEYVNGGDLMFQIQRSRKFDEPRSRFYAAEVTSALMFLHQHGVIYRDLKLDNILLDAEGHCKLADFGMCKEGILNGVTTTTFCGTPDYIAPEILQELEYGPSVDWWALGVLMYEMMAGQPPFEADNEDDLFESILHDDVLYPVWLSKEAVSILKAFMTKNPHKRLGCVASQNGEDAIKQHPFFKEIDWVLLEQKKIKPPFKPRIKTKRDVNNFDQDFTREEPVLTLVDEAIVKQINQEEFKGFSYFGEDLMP
Source text: The purpose of this protocol is to provide the reader with the conditions that we use to determine the activity and phospholipid dependence of Protein Kinase C ε. This protein is purified to near homogeneity and may behave differently from crude preparations. The calculated molecular weight of the protein is 83.5 kDa. Apparent molecular weights of 89-96 kDa have been reported in the literature, and the protein may run as a doublet (1). […] With the assay described in this protocol, we typically see a two-fold phosphatidylserine stimulation of activity. There are many factors that can affect the phospholipid dependence of this enzyme and it will display different degrees of dependency for different substrates. The quality of the lipids used is very important and can affect the lipid dependency dramatically. The reaction conditions given in this protocol and the enzyme concentration ranges used give linear reaction kinetics over at least ten minutes.
[…] of Phosphatidylserine (1.2 μl of 10 mg/ml PS Stock) and […] of diacylglycerol (0.6 μl of 2 mg/ml DAG Stock) are needed per reaction. Determine the total amount of each needed for the number of reactions one is running and make up 10% more lipid mix than required to account for pipetting loss.
Using a Hamilton syringe (remember to clean out with methanol), transfer the required volume of each lipid stock to a 12×75 mm glass test tube. Thoroughly dry down the chloroform with a nitrogen stream and gentle rotation of the tube. Resuspend the dried mixture with 10 μl buffer per reaction. Resuspension buffer is 10 mM HEPES, pH 7.4/0.3% Triton X-100. Vortex into solution/suspension. This will take at least two minutes of vortexing. Place the lipid mix in a 40° C. water bath for 5 minutes prior to adding to the reaction mix.
1). Make up the reaction mix. All assays should be done in triplicate. Two blanks (reaction mix with no enzyme added) should be included and one tube for determining the total cpm's in a reaction.
2). Dispense 60 μl of mix into each tube and place tubes at 30° C.
3). Dilute the protein to be assayed to between 20 and 50 ng/μl.
4). Add 2 μl of diluted enzyme to each tube at 20 second intervals. Blanks have no enzyme added.
5). Stop reactions at 10 minutes by adding 6 μl 5% phosphoric acid.
6). Incubate on ice for 5 minutes.
7). Spot 5 μl of reaction mix on to two phosphocellulose membranes. These are the “Totals”.
8). Transfer 55 μl from each tube to phosphocellulose membranes. Allow to dry. Wash the membranes three times with 5 ml 0.5% phosphoric acid per filter in a 400 ml beaker.
9). Transfer membranes to scintillation vials and count (drying is not necessary). […]

Sequence of EGF receptor (P00533 25-1210): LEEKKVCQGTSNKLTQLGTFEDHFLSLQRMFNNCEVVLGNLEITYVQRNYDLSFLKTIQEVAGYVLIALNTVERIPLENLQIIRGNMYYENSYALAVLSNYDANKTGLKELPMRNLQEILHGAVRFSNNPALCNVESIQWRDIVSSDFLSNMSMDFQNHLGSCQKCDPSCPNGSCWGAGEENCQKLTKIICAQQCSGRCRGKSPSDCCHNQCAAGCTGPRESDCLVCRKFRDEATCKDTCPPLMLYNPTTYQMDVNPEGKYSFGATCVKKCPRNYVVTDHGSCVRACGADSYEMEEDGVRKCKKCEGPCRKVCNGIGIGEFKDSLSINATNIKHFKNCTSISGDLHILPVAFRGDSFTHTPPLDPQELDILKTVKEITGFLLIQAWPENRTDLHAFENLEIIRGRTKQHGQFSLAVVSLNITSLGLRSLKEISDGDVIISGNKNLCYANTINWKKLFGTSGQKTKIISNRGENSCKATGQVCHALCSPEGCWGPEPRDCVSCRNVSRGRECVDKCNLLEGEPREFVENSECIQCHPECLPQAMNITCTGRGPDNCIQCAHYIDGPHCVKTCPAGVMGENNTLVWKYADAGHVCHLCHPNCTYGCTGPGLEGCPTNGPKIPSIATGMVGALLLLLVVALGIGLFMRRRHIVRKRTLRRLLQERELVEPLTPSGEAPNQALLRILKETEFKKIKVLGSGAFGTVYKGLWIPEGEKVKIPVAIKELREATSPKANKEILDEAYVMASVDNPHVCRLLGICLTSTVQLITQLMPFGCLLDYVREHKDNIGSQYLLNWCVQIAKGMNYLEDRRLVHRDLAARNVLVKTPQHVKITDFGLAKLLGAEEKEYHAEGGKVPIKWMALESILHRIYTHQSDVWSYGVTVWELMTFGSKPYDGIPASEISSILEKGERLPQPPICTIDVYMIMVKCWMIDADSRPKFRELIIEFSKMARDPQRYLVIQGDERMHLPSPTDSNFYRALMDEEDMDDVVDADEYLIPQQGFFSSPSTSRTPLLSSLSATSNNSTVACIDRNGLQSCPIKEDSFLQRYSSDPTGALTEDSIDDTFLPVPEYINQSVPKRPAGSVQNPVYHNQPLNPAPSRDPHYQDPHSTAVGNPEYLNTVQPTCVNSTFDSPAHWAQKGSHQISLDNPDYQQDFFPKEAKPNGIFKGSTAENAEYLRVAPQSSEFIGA

Molecule: O=C(O)CN(CCN(CC(=O)O)CC(=O)O)CC(=O)O [EDTA]
- EGF receptor kinase activity (EGF receptor): inhibits

B1: PKC epsilon: PKC isozyme tested for phosphorylation of GFAP peptide (protein, UniProt Q02156 1-737, looked up)
Protein kinase C epsilon type: T2 sequence (Q02156 1-737)
- substrate phosphorylated (radioactive data for FIG. 6) (GFAP peptide): 1.47%

Continued, in another order:

- polarization value (phosphatase activity) [1]: remained constant
Molecule: [Na+].[Na+].[Na+].[O]=[V]([O-])([O-])[O-] [vanadate, Na3VO4]

- % Activity ([2]; No Lipid Activators): 59%
- % Activity ([2]; PS/DAG): 100%
B2: PKC ε lot #6747: Protein Kinase C ε purified to near homogeneity, current lot of the enzyme (protein, UniProt Q02156 1-737, looked up)
Protein kinase C epsilon type: T2 sequence (Q02156 1-737)
- Specific Activity ([2]; No Lipid Activators): 743
- Specific Activity ([2]; PS/DAG): 1250
